In patent US20200318093A1:

Columns and labels:
[1] = target: casein sodium ("MIPRODAN", Nippon Shinyaku); experiment: cell-based or functional assay
[2] = target: casein sodium ("MIPRODAN", Nippon Shinyaku); experiment: cell-based or functional assay; remark: listed apart in the source
[3] = target: fish-derived gelatin (Nippi)
[4] = target: skim milk powder (Yotsuba Milk Products, low heat type)
[5] = target: casein sodium ("MIPRODAN", Nippon Shinyaku)
[6] = target: milk whey protein ("BiPro", Davisco)
[7] = target: porcine-derived acidic gelatin (Sigma)
[8] = target: bovine-derived alkaline gelatin (Sigma)
[9] = target: T1, ovalbumin (Sigma), P01012
T1 chain: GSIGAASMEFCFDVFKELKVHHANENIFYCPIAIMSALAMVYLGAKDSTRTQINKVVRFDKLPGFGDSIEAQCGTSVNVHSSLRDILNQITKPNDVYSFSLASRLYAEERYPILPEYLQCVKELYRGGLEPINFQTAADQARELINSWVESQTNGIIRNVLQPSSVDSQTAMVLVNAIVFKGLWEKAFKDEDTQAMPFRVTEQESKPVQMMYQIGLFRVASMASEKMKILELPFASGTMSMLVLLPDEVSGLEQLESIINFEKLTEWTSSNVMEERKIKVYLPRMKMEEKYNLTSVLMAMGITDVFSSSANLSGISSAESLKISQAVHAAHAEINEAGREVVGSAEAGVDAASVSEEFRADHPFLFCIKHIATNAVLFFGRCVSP

Q: “protein asparaginase of Leifsonia xyli AJ111071 (NITE P-01649) (enzyme)” was tested. Which released ammonia (3 h reaction with culture supernatant, control subtracted) [1] did it give?
A: The released ammonia (3 h reaction with culture supernatant, control subtracted) was 0.289 mM.

B1: protein asparaginase of Luteimicrobium album AJ111072 (NITE P-01650) (protein)
chain: AVTADDGSTPGTAAYLEDDYDFGDQAVPLANIGGIRGEMTGRIYLPTTAGAHPTVILLHGRHSSCTVPTGGGSVSNPNRWPCIAPQVNIPSYKGYESTAQNLATHGYAVVSISANAINANDNQLAPDYGAQARGQLVLDTLAMLRKANAGEPVSFHDAATDRTVDLASALAVSTEAEDLGSAPTSATNPGDAITPADLVGAFDLDDVGLMGHSRGGEGVVSAVNLNQKLAKPFGIKSVLPLAPVDFGRETAADTNMLVILPYCDGDVSNQQGQHFSDDSRYAYDDDSLRSTLWVMGADHNFFNSVWTPGKYPLSTSDDWGATSTDAVCGPLAPTNVRLSADDQYDVGVAVMSAWFRLTLGGEDQFLPLFDGSADPTLTSVPSAKLWSTATAPATKRADIEAFTANTSRVRVYGSATESVCASAGGRTLPQDAQPCATASALRSTSAMPHWTPASFAPNVPASPMGRFLWTSVSGSTAGSIRVTVPAAARDASEQDALTFKTAPDESVLTGTDLTVTVVDGHGATWSSAVSALNAGAVKRLPISGSTTLNKIVLQQVSVPVSTLAGSIDVSDVREVRFAGATGADGTATGGAYLSDLAFVSSGVGTVAGIASVPTVNVASTVVEEGSSVDEARVAVVLDQPADRTVSAWFTLMGSTADSSNAGLAAQKVTFQPGQTCQAVTVTILGNTVAGAAATTAYKADVSAPDGVIVGAAQFGTFTVREDDALTSGGALAPAVGTQGDVCAEYAARSVVQELTTSGDAVAGSHVTLTGSGYRVGESVAFTDGDAVLGTVLAGADGTAALDWAVPADARVGGHDVTAVGAGSARTAKATVTVRSATTTTLAIAPAAPAVGKAVTLTATVAGPDTAGTVTFADGSTVLGRVAVKDGRAALVVSGGFDAGTHTLTAAFGQTATAEGSVSPAVTFTLVKGKTTTVFVLAATRTTYGTAVAGRIVVGGADGGVATITVGNVVRSVRLDAHGAGSFTVPGTLKPATYRVTASYAGSRTLDTSSARASLTVLKAAPKVTLSAPATARKGATVTVTVKVVGVKGGVRPTGKAVVKLGGKAVKTVSVPSSGVVKVKVRLASAGTAKVTAAYQGSAYYTAASAAAKVKVKVVTK
Q: B1 was tested. Which released ammonia amount (0.68 U/ml enzyme solution) [2] did it give?
A: Its released ammonia amount (0.68 U/ml enzyme solution) is 1 mM.

Q: And the released ammonia amount (2.7 U/ml enzyme solution) [2]?
A: The released ammonia amount (2.7 U/ml enzyme solution) was 1.3 mM.

Q: And the Amount of generated ammonia [3]?
A: Its Amount of generated ammonia is 1.27 mM.

Q: And the Amount of generated ammonia (Rice proteins)?
A: The Amount of generated ammonia was 0.04 mM.

Q: And the Amount of generated ammonia [4]?
A: The Amount of generated ammonia was 1.22 mM.

Q: And the Amount of generated ammonia (cornmeal gluten (Sigma))?
A: Its Amount of generated ammonia is 0.41 mM.

Q: What about the Amount of generated ammonia [5] of the same molecule?
A: Its Amount of generated ammonia is 2.98 mM.

Q: And the Amount of generated ammonia [6]?
A: The Amount of generated ammonia was 1.17 mM.

Q: What about the Amount of generated ammonia [7] of the same molecule?
A: The Amount of generated ammonia was 2.23 mM.

Q: And the Amount of generated ammonia (α-casein (Sigma))?
A: Its Amount of generated ammonia is 4.69 mM.

Q: And the Amount of generated ammonia (Soybean proteins)?
A: The Amount of generated ammonia was 0.98 mM.

Q: And the Amount of generated ammonia [8]?
A: The Amount of generated ammonia was 0.73 mM.

Q: And the Amount of generated ammonia [9]?
A: The Amount of generated ammonia was 0.01 mM.

Q: And the Amount of generated ammonia (α-lactalbumin (Sigma))?
A: The Amount of generated ammonia was 1.84 mM.

B2: protein asparaginase of Leifsonia xyli AJ111071 (NITE P-01649) (protein)
chain: LPVRRRIALTVAAALIPVVALTTAPAALAAPAPDPVVASGSDWAVTTSPGGYLVTLDLDEPLPMVDDAPTLVVDGEPIGLATESADGLTLGVVTTDPAVASASSVTKGWSSGADDKAAETPEAPATPAVPENTTLTEQLKSFAQLVAVEDPADLGSYTVTEAEYDFGDQAVPLAAIGGIRGELTGKMYLTNATGARPTVVLLHGRHTSCSGTGANPLRWPCGPTQMNIRSYLGYEGTARALASRGYNVLSIAANAVNSNDNQLALDYGAQARGRLVLDTLGMLAKATAGDAVAYDDITTATDTVPSTTTTRTLDEALLRATTRADQPAAASGITAASLKGRFDLGHVGIMGHSRGGEGVVSAATLNQALAKPYGIESVLPLAPVDFGRMTLPDVPTAVFLPYCDGDVSNQQGQHFIDDSRHAFDDDVLRSAVWVMGANHNFFNTVWTPGLYPAATGDDWRTTDTTSTCATTNPTRMTAAQQYQVGVSYMTGFFRLTMGGETRFQSLFDGSVKPSTASTAYADVRTMATQPASKTSLVNDFTETSSLVRVSGGATAAVCTNLTGRTVPQSLPFCATTKASAQVPHWTPGSFAPNVPEFPVTRFLWTGASTTDPAVPSTGELRVTVPAKDRDASRHSQLTLKTAPDEAVQTGTDFRITVVDGAGKTFATTASAVNPLAVNRMPGGTNTTLNKVVLQQLTIPTSTITGIDLTDVREVRLTAAIGADGTGTGGVYLSDLAFDTPSVGTAVAQTRTTVNVAPTTVEEGDGPGTADVAVYLNRAEKSAVTAYVSVIGSATAAVGIGMEKVAFAPGETCKAVTVPTLGNTATSAAPSSAFKVSVTNSTNAVMGASAFANLTVREDDGVTGAAPALAPVGAQGDVCTELAAATTPVPLETSAEDVAPGGSFTLRATGYRAGETVAFRYGATDLGTQVAATDGTASVVVTVPEDADLGPAEATASGSGSGRAATVSVSVLAPTETTVTVTPAKPTAGQ
Q: How did the “N-terminus sequence of the insulin B chain after 8 h reaction (protein sequencer)” value (Insulin B chain (Sigma)) turn out when B2 was run?
A: The value was “asparagine of the third residue from the N-terminus of the insulin B chain was converted into aspartic acid by deamidation”.
